Tested on: CD4 T cells
Assay: CD4 T cell activation and differentiation in vitro with Dkk-1 or Wnt3a
Assay type: cell-based, mice
Text: FIG. 5, comprising FIG. 5A through FIG. 5E, depicts results of experiments showing Dkk-1 induces TH2 cell polarization. FIG. 5A depicts lungs harvested for immunohistochemistry of CD3 (dark brown), CD41 (blue) and isotype control antibodies of lungs from Dkk-1^d/d mice and their wildtype littermate controls challenged with HDM extract allergen. Orange arrowheads in the images indicate co-localized CD3 T cells with CD41^+ platelets. FIG. 5B depicts ELISA analysis of Dkk-1 from plasma samples from Dkk-1^d/d mice (n=5) collected 24 hours after challenge with 50 μg HDM. FIG. 5C depicts ELISA analysis of splenic CD4 T cells from 6-8 week-old C57BL/6 mice were activated with anti-CD3 and anti-CD28 antibodies (Act) with or without Dkk-1 (30 ng/ml unless indicated) for 4 days. FIG. 5D depicts flow cytometry analysis of splenic CD4 T cells from 6-8 week-old C57BL/6 mice were activated with anti-CD3 and anti-CD28 antibodies (Act) with or without Dkk-1 (30 ng/ml unless indicated) for 4 days. FIG. 5E depicts ELISA analysis of naïve CD4 T cells stimulated anti-CD3 and anti-CD28 antibodies for 96 hr with or without Dkk-1.
FIG. 6, comprising FIG. 6A through FIG. 6E, depicts results of experiments showing Dkk-1 induces TH2 cytokines in various T cell differentiation conditions. FIG. 6A depicts flow cytometry and ELISA analysis of naïve CD4 T cells were stimulated under TH1 polarization conditions for 96 hours with or without Dkk-1. FIG. 6B depicts flow cytometry and ELISA analysis of naïve CD4 T cells were stimulated under TH2 polarization conditions for 96 hours with or without Dkk-1. FIG. 6C depicts flow cytometry analysis of Foxp3, IL-17A, and IL-10 expression in splenic naïve CD4 T cells isolated and differentiated into iTreg for 5 days with 100 U/ml IL-2 and 1.5 ng/ml TGF-β with or without 30 ng/ml and 3 ng/ml of Dkk-1 treated during the culture. FIG. 6D depicts Gata-3 expression levels of splenic naïve CD4 T cells from 8 week-old C57BL/6 mice treated with Dkk-1 with varying doses of Dkk-1 (50, 30, 7.5 ng/ml) or Wnt3a (20% v/v) for 96 hours in the presence of anti-CD3 and anti-CD28 antibody stimulation. FIG. 6E depicts qPCR results of Tcf7 and Lef1 mRNA harvested from splenic naïve CD4 T cells from 8 week-old C57BL/6 mice stimulated with or without Dkk-1 (30 ng/ml) for 96 hours. All results were statistically non-significant. All experiments are a representative of two to three independent experiments. Student's t-test or one way-ANOVA analysis with Bonferonni's post-hoc test were performed. Small horizontal lines and error bars indicate the mean (±s.e.m.). ***, p<0.0001, **, p<0.005, *, p<0.05.
FIG. 8, comprising FIG. 8A through FIG. 8G, depicts results of experiments showing Dkk-1 induces IL-10 in CD4 T cells via SGK-1 and p38 MAPK. FIG. 8A depicts ELISA analysis of naïve CD4 T cell differentiated into TH2 cells with or without Dkk-1 (30 ng/ml), SGK-1 inhibitor (2 μM) or p38 inhibitor (10 μM) for 96 hours. FIG. 8B depicts flow cytometry analysis of human naïve CD4 T cells (CD4^+CD25^−CD45RA^+) transduced with SGK-1 shRNA and selected with puromycin (0.5 μg/ml) for 48 hours. The selected cells were stimulated with anti-CD3 mAb (OKT3) and anti-CD28 mAb with or without Dkk-1 for 96 hr. For the last 5 hr of culture, stimulation cocktail (PMA/Ionomycin/Brefeldin A/Monensin) was added. FIG. 8C depicts intracellular staining with antibodies recognizing phospho-S6 kinase of splenic CD4^+CD25^− cells from 6 week-old C57BL/6 mice were isolated and activated with anti-CD3 and anti-CD28 mAb (2 μg/ml) with or without Dkk-1 (25 ng/ml) for indicated time points. FIG. 8D depicts intracellular staining with antibodies recognizing phospho-4E-BP1 of splenic CD4^+CD25^− cells from 6 week-old C57BL/6 mice were isolated and activated with anti-CD3 and anti-CD28 mAb (2 μg/ml) with or without Dkk-1 (25 ng/ml) for indicated time points. […]

B1: Dkk-1: Wnt antagonist Dickkopf-1 protein, expressed in CHO cells, added to cells or injected into mice (protein, UniProt O94907 32-266, looked up)
Dickkopf-related protein 1: TLNSVLNSNAIKNLPPPLGGAAGHPGSAVSAAPGILYPGGNKYQTIDNYQPYPCAEDEECGTDEYCASPTRGGDAGVQICLACRKRRKRCMRHAMCCPGNYCKNGICVSSDQNHFRGEIEETITESFGNDHSTLDGYSRRTTLSSKMYHTKGQEGSVCLRSSDCASGLCCARHFWSKICKPVLKEGQVCTKHRRKGSHGLEIFQRCYCGEGLSCRIQKDHHQASNSSRLHTCQRH
CD4 T cell activation in vitro
  TH1 and TH17-associated cytokines (IFN-γ, IL-17A and IL-17F): not induced
TH1 polarization conditions, 96 hours
  IFN-γ expression: suppressed
TH2 cell differentiation, dose-dependent
  IL-4 expression: enhanced
iTreg differentiation with IL-2 and TGF-β, 5 days
  TGF-β-mediated Foxp3 expression: inhibiting
In vitro, Dkk-1 30 ng/ml
  Gata-3+ and c-Maf+ CD4 T cell population: increased
naïve CD4 T cells, 96 hours, similar to Wnt3a
  amount of Dkk-1 that could induce Gata-3 expression: up to 30 ng/ml
naïve CD4 T cells, Dkk-1 30 ng/ml, 96 hours, qPCR
  TCF-1 or Lef expression: did not induce
naïve CD4 T cells, non-physiologic high levels
  levels of Dkk-1 that inhibited Gata-3 expression: > 50 ng/mL
Splenic CD4+CD25- cells, Dkk-1 25 ng/ml
  phosphorylation of S6 kinase or 4E-BP-1: not altered
Total CD4 T cell activation in vitro, Dkk-1 30 ng/ml, 4 days
  IL-4, IL-10 and IL-13: induced
